# Measurements as given in PMC7291619.
# Target: in vitro-polymerized and paclitaxel-stabilized microtubules (UniProt P02554)
# Assay: co-sedimentation; varied concentrations of purified His-TbSpef1 incubated with in vitro-assembled, paclitaxel-stabilized microtubules at room temperature for 30 min; diluted in cushion buffer (80 mM PIPES pH 7.0, 1 mM MgCl2, 1 mM EGTA, 60% glycerol, 20 uM paclitaxel); 100,000 x g, 30°C, 30 min; pellets and supernatants immunoblotted
# Sequence of in vitro-polymerized and paclitaxel-stabilized microtubules (P68363 whole entry, chain 1 of 2): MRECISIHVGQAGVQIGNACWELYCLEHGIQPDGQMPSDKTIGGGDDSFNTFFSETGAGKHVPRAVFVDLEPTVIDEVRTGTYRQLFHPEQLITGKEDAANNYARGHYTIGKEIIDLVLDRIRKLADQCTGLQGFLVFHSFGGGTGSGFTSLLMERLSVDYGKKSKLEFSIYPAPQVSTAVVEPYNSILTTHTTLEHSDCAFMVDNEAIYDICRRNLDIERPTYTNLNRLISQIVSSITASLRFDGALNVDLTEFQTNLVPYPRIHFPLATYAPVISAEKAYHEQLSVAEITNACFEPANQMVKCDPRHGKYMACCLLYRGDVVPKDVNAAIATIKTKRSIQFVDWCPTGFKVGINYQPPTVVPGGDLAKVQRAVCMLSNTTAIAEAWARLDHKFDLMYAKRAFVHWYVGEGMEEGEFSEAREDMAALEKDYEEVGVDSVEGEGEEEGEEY
# Sequence of in vitro-polymerized and paclitaxel-stabilized microtubules (P02554 whole entry, chain 2 of 2): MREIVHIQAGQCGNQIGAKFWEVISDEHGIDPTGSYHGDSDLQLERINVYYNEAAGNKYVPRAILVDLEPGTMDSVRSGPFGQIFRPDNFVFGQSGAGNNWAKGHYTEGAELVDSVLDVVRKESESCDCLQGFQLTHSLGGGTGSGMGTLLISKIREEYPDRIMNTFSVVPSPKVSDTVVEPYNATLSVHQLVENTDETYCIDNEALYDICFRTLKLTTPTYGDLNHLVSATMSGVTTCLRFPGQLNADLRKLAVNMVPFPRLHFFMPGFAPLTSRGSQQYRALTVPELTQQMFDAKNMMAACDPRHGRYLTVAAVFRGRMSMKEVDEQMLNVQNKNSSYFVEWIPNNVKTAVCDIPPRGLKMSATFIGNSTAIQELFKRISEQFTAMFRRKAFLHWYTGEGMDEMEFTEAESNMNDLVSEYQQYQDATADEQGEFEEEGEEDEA
substance,measurement,value
His-TbSpef1 (natural protein),stoichiometry N (TbSpef1 per α/β-tubulin dimer),> 1
